This note sets out measurements from PMC11315836.

pKd: −log10 of the molar value.

This test concerns the target Recombinant hG-CSFR (granulocyte colony stimulating factor receptor) (human) (UniProt Q99062). Nature of the test: SPR. (In general: Surface plasmon resonance follows binding to a sensor surface in real time, without labels.)
UniProt Q99062, sequence (Q99062 25-836): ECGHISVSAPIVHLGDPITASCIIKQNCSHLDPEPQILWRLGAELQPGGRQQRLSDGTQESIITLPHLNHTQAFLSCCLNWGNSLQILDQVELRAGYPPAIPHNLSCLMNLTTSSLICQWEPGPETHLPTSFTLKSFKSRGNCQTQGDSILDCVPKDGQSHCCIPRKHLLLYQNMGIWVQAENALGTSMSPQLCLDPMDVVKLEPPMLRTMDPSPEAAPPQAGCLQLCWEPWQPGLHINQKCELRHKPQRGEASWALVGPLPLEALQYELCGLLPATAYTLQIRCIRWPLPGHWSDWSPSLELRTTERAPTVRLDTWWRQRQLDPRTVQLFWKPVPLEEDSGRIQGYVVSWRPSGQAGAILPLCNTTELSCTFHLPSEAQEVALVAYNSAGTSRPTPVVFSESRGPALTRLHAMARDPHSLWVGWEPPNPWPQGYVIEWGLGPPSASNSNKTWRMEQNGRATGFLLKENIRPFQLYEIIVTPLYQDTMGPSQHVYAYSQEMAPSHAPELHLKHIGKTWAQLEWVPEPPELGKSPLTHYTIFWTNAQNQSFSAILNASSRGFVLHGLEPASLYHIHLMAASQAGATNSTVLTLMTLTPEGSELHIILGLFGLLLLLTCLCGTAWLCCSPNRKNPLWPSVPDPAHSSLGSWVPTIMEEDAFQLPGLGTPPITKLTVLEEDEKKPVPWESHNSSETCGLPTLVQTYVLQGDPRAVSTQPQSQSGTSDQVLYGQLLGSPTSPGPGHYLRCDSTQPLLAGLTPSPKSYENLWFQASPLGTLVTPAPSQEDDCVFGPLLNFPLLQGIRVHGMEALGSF

For orientation: pKd means the negative decadic logarithm of the Kd, by convention in mol/L. Consider “pegfilgrastim (Neulasta), reference product (from UniProt P09919-2 31-204) (ligand)”, for which the pKd was 10.01.
